T1: human amylin receptor (human calcitonin receptor + human RAMP3) (human) (UniProt P30988)
T1 sequence (looked up) 1: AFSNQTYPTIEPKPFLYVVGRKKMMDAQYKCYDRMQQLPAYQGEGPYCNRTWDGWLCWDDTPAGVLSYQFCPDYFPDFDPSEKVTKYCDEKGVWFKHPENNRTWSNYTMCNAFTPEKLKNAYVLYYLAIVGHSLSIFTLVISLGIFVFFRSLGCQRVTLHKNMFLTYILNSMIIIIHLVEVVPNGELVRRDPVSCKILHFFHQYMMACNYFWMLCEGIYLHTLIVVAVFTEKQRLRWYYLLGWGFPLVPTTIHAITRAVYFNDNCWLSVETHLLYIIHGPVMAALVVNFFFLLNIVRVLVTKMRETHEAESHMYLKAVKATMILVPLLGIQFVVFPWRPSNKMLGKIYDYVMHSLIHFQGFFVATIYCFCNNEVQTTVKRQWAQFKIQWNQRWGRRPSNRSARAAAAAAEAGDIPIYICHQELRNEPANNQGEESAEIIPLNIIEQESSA
T1 sequence (looked up) 2: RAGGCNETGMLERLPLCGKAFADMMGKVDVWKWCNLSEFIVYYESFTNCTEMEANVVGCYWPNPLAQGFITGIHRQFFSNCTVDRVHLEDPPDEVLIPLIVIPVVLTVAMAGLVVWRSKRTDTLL

B1: [N-terminal(C20 diacid-gGlu), des1, 30S, 31G, 33H]mimylin (peptide)
peptide: {C20 diacid-γGlu}-ASELSTAALGRLSAELHELATLPRTETGSGSH-NH2
SMILES: CC(C)C[C@H](NC(=O)[C@H](C)NC(=O)[C@H](C)NC(=O)[C@@H](NC(=O)[C@H](CO)NC(=O)[C@H](CC(C)C)NC(=O)[C@H](CCC(=O)O)NC(=O)[C@H](CO)NC(=O)[C@H](C)NC(=O)CC[C@H](NC(=O)CCCCCCCCCCCCCCCCCCC(=O)O)C(=O)O)[C@@H](C)O)C(=O)NCC(=O)N[C@@H](CCCNC(=N)N)C(=O)N[C@@H](CC(C)C)C(=O)N[C@@H](CO)C(=O)N[C@@H](C)C(=O)N[C@@H](CCC(=O)O)C(=O)N[C@@H](CC(C)C)C(=O)N[C@@H](Cc1c[nH]cn1)C(=O)N[C@@H](CCC(=O)O)C(=O)N[C@@H](CC(C)C)C(=O)N[C@@H](C)C(=O)N[C@H](C(=O)N[C@@H](CC(C)C)C(=O)N1CCC[C@H]1C(=O)N[C@@H](CCCNC(=N)N)C(=O)N[C@H](C(=O)N[C@@H](CCC(=O)O)C(=O)N[C@H](C(=O)NCC(=O)N[C@@H](CO)C(=O)NCC(=O)N[C@@H](CO)C(=O)N[C@@H](Cc1c[nH]cn1)C(N)=O)[C@@H](C)O)[C@@H](C)O)[C@@H](C)O
B2: [N-terminal(C20 diacid-gGlu), des1, 12H, 30S, 31G]mimylin (peptide)
peptide: {C20 diacid-γGlu}-ASELSTAALGHLSAELHELATLPRTETGSGSP-NH2
B3: [N-terminal(C20 diacid-gGlu), 1A, 23Y, 30S, 31G]mimylin (peptide)
peptide: {C20 diacid-γGlu}-AASELSTAALGRLSAELHELATYPRTETGSGSP-NH2
SMILES: CC(C)C[C@H](NC(=O)[C@H](C)NC(=O)[C@H](C)NC(=O)[C@@H](NC(=O)[C@H](CO)NC(=O)[C@H](CC(C)C)NC(=O)[C@H](CCC(=O)O)NC(=O)[C@H](CO)NC(=O)[C@H](C)NC(=O)[C@H](C)NC(=O)CC[C@H](NC(=O)CCCCCCCCCCCCCCCCCCC(=O)O)C(=O)O)[C@@H](C)O)C(=O)NCC(=O)N[C@@H](CCCNC(=N)N)C(=O)N[C@@H](CC(C)C)C(=O)N[C@@H](CO)C(=O)N[C@@H](C)C(=O)N[C@@H](CCC(=O)O)C(=O)N[C@@H](CC(C)C)C(=O)N[C@@H](Cc1c[nH]cn1)C(=O)N[C@@H](CCC(=O)O)C(=O)N[C@@H](CC(C)C)C(=O)N[C@@H](C)C(=O)N[C@H](C(=O)N[C@@H](Cc1ccc(O)cc1)C(=O)N1CCC[C@H]1C(=O)N[C@@H](CCCNC(=N)N)C(=O)N[C@H](C(=O)N[C@@H](CCC(=O)O)C(=O)N[C@H](C(=O)NCC(=O)N[C@@H](CO)C(=O)NCC(=O)N[C@@H](CO)C(=O)N1CCC[C@H]1C(N)=O)[C@@H](C)O)[C@@H](C)O)[C@@H](C)O

Results on 3 molecules are retold here after patent publication US20160272683A1 (Novo Nordisk, published 2016).

Numbered stars: 1 amine (or outer) side, 2 acyl side, 3 side chain; on linkers, the order of the positions; unused ones are H or OH. * marks the point of attachment. C20 diacid = O=C(O)CCCCCCCCCCCCCCCCCCC(=O)*; γGlu = O=C(O)[C@H](CCC(=O)[*:2])N[*:1]

The target in one assay is rat amylin receptor (rat calcitonin receptor with rat RAMP 3) (rat) (UniProt P32214). As to the kind of experiment: SPA competition vs 125I-rat amylin, membranes with rat CTR + rat RAMP3 (Assay VI).
By IC50 is commonly meant the midpoint of a concentration-inhibition curve. For the molecule B1, the 50% inhibitory concentration (IC50) amounted to 0.046 nM.

Take B2: the 50% inhibitory concentration (IC50) was 1.53 nM.

On to B3, for which the IC50 was determined as 0.025 nM.

The target in a further assay is T1, human amylin receptor (human calcitonin receptor + human RAMP3) (human). As to the kind of experiment: whole-cell competition vs 125I-rat amylin (Assay Va).
In the case of B1, the IC50 was 1.07 nM.

As to B2, the IC50 is 0.697 nM.

For the molecule B3, the IC50 was 1.23 nM.

In another assay the target is rat calcitonin receptor (rat) (UniProt P32214). As to the kind of experiment: SPA competition vs 125I-calcitonin, membranes with rat CTR (Assay VIII).
For B1, the half-maximal inhibitory concentration (IC50) was 0.02 nM.

With B2, the IC50 was determined as 0.085 nM.

With B3, the IC50 amounted to 0.044 nM.
